Measured values: patent publication US20220242962A1 (APTEVO RESEARCH AND DEVELOPMENT, published 2022)

T1: Full-length Human OX40 (human, UniProt P43489 29-277)
T1 sequence: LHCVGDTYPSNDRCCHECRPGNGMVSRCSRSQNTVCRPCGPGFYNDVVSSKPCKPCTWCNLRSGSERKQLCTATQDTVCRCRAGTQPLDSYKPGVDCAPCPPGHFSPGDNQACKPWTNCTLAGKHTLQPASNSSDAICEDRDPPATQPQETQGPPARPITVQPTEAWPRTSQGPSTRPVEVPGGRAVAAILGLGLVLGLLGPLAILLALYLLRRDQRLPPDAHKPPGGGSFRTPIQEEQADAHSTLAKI

T2: Full-length Cyno 4-1BB (cynomolgus monkey, UniProt Q07011 24-255 (human entry))
T2 construct: on Jurkat or CHO cells; also called FOB006; cynomolgus 4-1BB
T2 chain: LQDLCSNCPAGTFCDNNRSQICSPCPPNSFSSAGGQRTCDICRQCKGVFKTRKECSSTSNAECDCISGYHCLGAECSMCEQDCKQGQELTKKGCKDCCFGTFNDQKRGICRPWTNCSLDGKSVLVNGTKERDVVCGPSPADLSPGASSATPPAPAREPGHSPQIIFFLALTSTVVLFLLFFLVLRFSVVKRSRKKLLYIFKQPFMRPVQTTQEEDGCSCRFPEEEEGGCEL

T3: Human OX40 ECD-AFH (human)
T3 construct: ECD'; entry includes the C-terminal tags; also called OXF003; Human OX40 ECD-avi-flag-his
T3 chain: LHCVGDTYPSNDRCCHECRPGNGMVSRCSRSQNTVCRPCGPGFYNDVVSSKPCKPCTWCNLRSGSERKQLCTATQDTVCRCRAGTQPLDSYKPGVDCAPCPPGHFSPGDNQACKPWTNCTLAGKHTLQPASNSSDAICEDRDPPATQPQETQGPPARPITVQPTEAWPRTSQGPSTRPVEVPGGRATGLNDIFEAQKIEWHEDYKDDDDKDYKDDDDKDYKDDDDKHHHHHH

T4: Cyno 4-1BB ECD-AFH (cynomolgus monkey)
T4 construct: entry includes the tags; also called FOB004; Cyno CD137 ECD-avi-flag-his
T4 chain: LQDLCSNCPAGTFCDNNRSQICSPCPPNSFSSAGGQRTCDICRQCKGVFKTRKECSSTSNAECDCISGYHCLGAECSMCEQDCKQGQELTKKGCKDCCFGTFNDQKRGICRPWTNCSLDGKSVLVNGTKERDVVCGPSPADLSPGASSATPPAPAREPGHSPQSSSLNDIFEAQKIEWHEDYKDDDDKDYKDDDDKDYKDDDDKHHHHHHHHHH

T5: Cyno OX40-AFH (cynomolgus monkey)
T5 construct: entry includes the tags; also called OXF005; cyno OX40 ECD
T5 chain: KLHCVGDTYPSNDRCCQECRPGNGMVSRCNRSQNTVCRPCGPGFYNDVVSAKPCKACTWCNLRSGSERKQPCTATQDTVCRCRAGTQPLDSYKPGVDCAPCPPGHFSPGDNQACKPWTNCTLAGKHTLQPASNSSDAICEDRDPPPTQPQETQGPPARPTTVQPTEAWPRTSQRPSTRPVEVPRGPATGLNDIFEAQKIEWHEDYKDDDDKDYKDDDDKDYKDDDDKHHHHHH

T6: Full-length Cyno OX40 (cynomolgus monkey, UniProt P43489 29-277 (human entry))
T6 construct: on CHO-K1SV cells; also called OXF004; cynomolgus OX40
T6 chain: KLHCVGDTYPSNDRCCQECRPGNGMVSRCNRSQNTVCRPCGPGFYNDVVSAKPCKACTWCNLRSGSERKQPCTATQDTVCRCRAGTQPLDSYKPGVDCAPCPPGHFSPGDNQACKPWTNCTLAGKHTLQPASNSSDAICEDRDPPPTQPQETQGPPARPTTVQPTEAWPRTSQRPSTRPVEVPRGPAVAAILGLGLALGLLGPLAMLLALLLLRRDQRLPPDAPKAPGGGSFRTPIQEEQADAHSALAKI

B1: FXX01110 (bispecific antibody)
chain: EVQLVQSGAEVKKPGASVKVSCKASGYTFTSYWMNWVRQAPGQGLEWMGNIYPSGGSTNYAQKFQGRVTMTVDTSTSTVYMELSSLRSEDTAVYYCASFSDGYYAYAMDYWGQGTLVTVSSGGGGSGGGGSGGGGSGGGGSEIVMTQSPATLSLSPGERATLSCRASQSVSSYLNWYQQKPGQAPRLLIYYASRRHTGIPARFSGSGSGTDFTLTISSLQPEDFAVYYCQQGYNLPYTFGQGTKVEIKEPKSSDKTHTCPPCPAPPAAAPSVFLFPPKPKDTLMISRTPEVTCVVVDVSHEDPEVKFNWYVDGVEVHNAKTKPREEQYNSTYRVVSVLTVLHQDWLNGKEYKCAVSNKALPAPIEKTISKAKGQPREPQVYTLPPSRDELTKNQVSLTCLVKGFYPSDIAVEWESNGQPENNYKTTPPVLDSDGSFFLYSKLTVDKSRWQQGNVFSCSVMHEALHNHYTQKSLSLSPGGGGSPSSYVLTQPPSVSVAPGQTARITCGGNNIGSKSVNWFQQKPGQAPVLVVYDDSGRPSGIPARFSGSTSGNTATLTISRVEAGDEADYYCQVWDSSSDHVVFGGGTKLTVLGGGGSGGGGSGGGGSGGGGSQVQLVESGGGVVQPGRSLRLSCAASGFTLSYYGMHWVRQAPGKGLEWVAAISHDGSDKYYADSVKGRFTISRDNSKNTLYLQMNSLRAEDTAVYYCSNDQFDPWGQGTLVTVSSR
notes: ADAPTIR anti-4-1BB x anti-OX40, pI variant of the anti-OX40 scFv
B2: FXX01113 (bispecific antibody)
chain: EVQLVQSGAEVKKPGASVKVSCKASGYTFTSYWMNWVRQAPGQGLEWMGNIYPSGGSTNYAQKFQGRVTMTVDTSTSTVYMELSSLRSEDTAVYYCASFSDGYYAYAMDYWGQGTLVTVSSGGGGSGGGGSGGGGSGGGGSEIVMTQSPATLSLSPGERATLSCRASQSVSSYLNWYQQKPGQAPRLLIYYASRRHTGIPARFSGSGSGTDFTLTISSLQPEDFAVYYCQQGYNLPYTFGQGTKVEIKEPKSSDKTHTCPPCPAPPAAAPSVFLFPPKPKDTLMISRTPEVTCVVVDVSHEDPEVKFNWYVDGVEVHNAKTKPREEQYNSTYRVVSVLTVLHQDWLNGKEYKCAVSNKALPAPIEKTISKAKGQPREPQVYTLPPSRDELTKNQVSLTCLVKGFYPSDIAVEWESNGQPENNYKTTPPVLDSDGSFFLYSKLTVDKSRWQQGNVFSCSVMHEALHNHYTQKSLSLSPGGGGSPSSYVLTQPPSVSVAPGQTARITCGGNNIGSKSVNWFQQKPGQAPVLVVYDDSGRPSGIPARFSGSTSGNTATLTISRVEAGDEADYYCQVWDSSSDHVVFGGGTKLTVLGGGGSGGGGSGGGGSGGGGSQVQLVESGGGVVQPGRSLRLSCAASGFTLSYYGMHWVRQAPGKGLEWVAAISHDGSDKYYADSVKGRFTISRDNSKNRLYLQMNSLRAEDTAVYYCSNDQFDPWGQGTLVTVSSR
notes: ADAPTIR anti-4-1BB x anti-OX40, pI variant
B3: FXX01112 (bispecific antibody)
chain: EVQLVQSGAEVKKPGASVKVSCKASGYTFTSYWMNWVRQAPGQGLEWMGNIYPSGGSTNYAQKFQGRVTMTVDTSTSTVYMELSSLRSEDTAVYYCASFSDGYYAYAMDYWGQGTLVTVSSGGGGSGGGGSGGGGSGGGGSEIVMTQSPATLSLSPGERATLSCRASQSVSSYLNWYQQKPGQAPRLLIYYASRRHTGIPARFSGSGSGTDFTLTISSLQPEDFAVYYCQQGYNLPYTFGQGTKVEIKEPKSSDKTHTCPPCPAPPAAAPSVFLFPPKPKDTLMISRTPEVTCVVVDVSHEDPEVKFNWYVDGVEVHNAKTKPREEQYNSTYRVVSVLTVLHQDWLNGKEYKCAVSNKALPAPIEKTISKAKGQPREPQVYTLPPSRDELTKNQVSLTCLVKGFYPSDIAVEWESNGQPENNYKTTPPVLDSDGSFFLYSKLTVDKSRWQQGNVFSCSVMHEALHNHYTQKSLSLSPGGGGSPSSYVLTQPPSVSVAPGQTARITCGGNNIGSKSVNWFQQKPGQAPVLVVYDDSGRPSGVPSRFSGSTSGNTATLTISRVEAGDEADYYCQVWDSSSDHVVFGGGTKLTVLGGGGSGGGGSGGGGSGGGGSQVQLVESGGGVVQPGRSLRLSCAASGFTLSYYGMHWVRQAPGKGLEWVAAISHDGSDKYYADSVKGRFTISRDNSKNTLYLQMNSLRAEDTAVYYCSNDQFDPWGQGTLVTVSSR
notes: as for B2

How the values were obtained:
[1] = target: Full-length Human 4-1BB (human, UniProt Q07011 24-255); assay: cell-based or functional assay
[2] = target: T1, Full-length Human OX40; assay: cell-based or functional assay
[3] = target: T2, Full-length Cyno 4-1BB; assay: flow cytometry on Jurkat cells transfected with cynomolgus 4-1BB, goat anti-human Fc secondary antibody, MFI (Mean)
Protocol: (§1) Serial dilutions of ADAPTIR™ constructs were incubated with transfected target cells and subsequently labelled with a fluorescently-conjugated goat-a-human Fc secondary antibody. […] (See Example 25.)

[4] = target: T3, Human OX40 ECD-AFH; assay: SPR (Biacore 8K), construct captured, monovalent ECD
Protocol: (§2) Mouse anti-human IgG (GE, BR-1008-39) at 25 μg/ml in 10 mM sodium acetate pH 5.0 was immobilized at a density of ˜10,000 response units (RU) onto each flow cell of a CM5 research-grade sensor chip (GE) by standard amine coupling chemistry. Each binding protein at approximately 100 nM in HBS-EP+ with 0.2% BSA buffer was captured in a flow cell with the immobilized anti-human IgG at a flow rate of 10 μL/min for 20 seconds, leaving one flow cell surface unmodified as the reference. Using a single-cycle kinetics mode, five different concentrations of ECD were sequentially injected through each flow cell at 30 μL/min for 300 seconds followed by a 600 second dissociation period. Regeneration was achieved by injection of 3 M MgCl₂ at a flow rate of 30 μL/min for 30 seconds followed by HBS-EP+ with 0.2% BSA buffer stabilization for 1 min.
(§3) Sensorgrams obtained from kinetic SPR measurements were analyzed by the double subtraction method. The signal from the reference flow cell was subtracted from the analyte binding response obtained from flow cells with immobilized or captured ligands. Buffer reference responses were then averaged from multiple injections. The averaged buffer reference responses were then subtracted from analyte binding responses, and the final double-referenced data were analyzed with Biacore T200 Evaluation software (2.0, GE), globally fitting data to derive kinetic parameters. All sensorgrams were fitted using a simple one-to-one binding model.
(§4) Using the BIACORE 8K SPR system, the affinity of these constructs for human and cyno 4-1BB, and human and cyno OX40 ECD, were determined using the methods described above. Monovalent binding affinity was determined by capturing the ADAPTIR™ bispecific construct on the chip and injecting monovalent ECD of the target at multiple concentrations.

[5] = target: T4, Cyno 4-1BB ECD-AFH; assay: as above
Protocol: as §2, §3, §4

[6] = target: T5, Cyno OX40-AFH; assay: as above
Protocol: as §2, §3, §4

[7] = target: T7, Human 4-1BB ECD-AFH (human); assay: as above
T7 construct: entry includes the tags; also called FOB003; HUMAN CD137 ECD-AVI-FLAG-HIS
Protocol: as §2, §3, §4

[8] = target: T6, Full-length Cyno OX40; assay: flow cytometry on CHOK1SV cells transfected with cynomolgus OX40, goat anti-human Fc secondary antibody, MFI (Mean)
Protocol: as §1

Binder | 4-1BB Reporter Assay EC50 [1] [nM] | 4-1BB Reporter Assay Max induction [1] | OX40 Reporter Assay EC50 [2] [nM] | OX40 Reporter Assay Max induction [2] | EC50 (read off the curve) [3] [nM] | Kd [4] [nM] | koff [4] [s⁻¹] | kon [4] [M⁻¹ s⁻¹] | Kd [5] [nM] | koff [5] [s⁻¹] | kon [5] [M⁻¹ s⁻¹] | Kd [6] [nM] | koff [6] [s⁻¹] | kon [6] [M⁻¹ s⁻¹] | Kd [7] [nM] | koff [7] [s⁻¹] | kon [7] [M⁻¹ s⁻¹] | EC50 (read off the curve) [8] [nM]
B1 | 0.021 | 1.38e+06 | 0.017 | 5.9e+06 | ~0.3 | < 1 | 0.00036 | 910000 | 70 | 0.0077 | 110000 | < 1 | 0.00029 | 1.1e+06 | 18 | 0.0048 | 260000 | 1 to 2
B2 | 0.019 | 1.37e+06 | 0.016 | 6.1e+06 | ~0.3 | < 1 | 0.00031 | 890000 | 82 | 0.0078 | 95000 | < 1 | 0.00028 | 980000 | 15 | 0.0046 | 300000 | 1 to 2
B3 | 0.014 | 1.45e+06 | 0.019 | 6.17e+06 | ~0.3 | < 1 | 0.00057 | 790000 | 77 | 0.008 | 100000 | < 1 | 0.00031 | 870000 | 17 | 0.0045 | 260000 | 1 to 2
